We go through one protein from patent US20110280900A1 (INTERVET INTERNATIONAL B V, published 2011).

The series deals with the molecule itself. As to the kind of experiment: immunoblot after non-denaturing gel; only the 65 kDa band detected.

B1: Clostridium chauvoei toxin A (CctA), native secreted toxin in C. chauvoei culture supernatants (other)
chain: QENTCIVETPSEGVKTFTSSDTAYADYNCFKTNLSVTFIEDQHNNQLTALVSTEGSFIPSGLSRVGGYYQADMYWPSKYYTTLTTYDRNNRVKITKSIPTNQIDTVSVSETMGYSIGGSLSIEYGKEGPKAGGGINGSYTAQRSVTYDQPDYRTLLMKDSVNSASWEVAFNATKDGYDRDSYHGIYGNQLFMRYRLYNTGINNLTTDNNLSSLIVGGFSPKVVIALTAPKGTEESTVKVEYNRFNDQYRLRWSGTEWYGENNRNSRIDSSSESFILNWKNHTVEHAGY
notes: also called CctA toxin; mature CctA
As to B1, the binding result is “binds”.
